These results are taken from US10202593B2, “Evolved sortases and uses thereof” (President and Fellows of Harvard College, priority 2013, dated 2019).

In one data set the target is T1, LRETG (Staphylococcus aureus, UniProt Q2FV99, A104H/D160K/D165A/E105D/I182V/K138P/K152I/K162H/K173E/K190E/K196S/P94R/S102C/T164N).
T1 construct: All expressed sortases lack the N-terminal 59 amino acids; inferred from Ni-NTA purification; made in house; host or cells: E. coli BL21 (DE3), pET29
T1 sequence (Q2FV99 60-206 P94R/S102C/A104H/E105D/K138P/K152I/D160K/K162H/T164N/D165A/G167E/K173E/I182V/K190E/K196S): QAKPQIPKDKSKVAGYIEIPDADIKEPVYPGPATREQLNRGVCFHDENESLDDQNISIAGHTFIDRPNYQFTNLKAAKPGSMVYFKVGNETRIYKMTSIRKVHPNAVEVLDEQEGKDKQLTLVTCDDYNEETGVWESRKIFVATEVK
In words: In vitro sortase kinetics HPLC assay, LRETG substrate. Type of data set: biochemical. On the procedure:
See below for details on sortase expression and purification, and on the synthesis of Abz-LPETGK(Dnp)-CONH2 (SEQ ID NO: 19). […] Reactions were initiated with the addition of enzyme and incubated at 22.5° C. for 3 to 20 minutes before quenching with 0.5 volumes of 1 M HCl. Five to ten nmol of peptide from the quenched reactions were injected onto an analytical reverse-phase Eclipse XDB-C18 HPLC column (4.6×150 mm, 5 μm, Agilent Technologies) and chromatographed using a gradient of 10 to 65% acetonitrile with 0.1% TFA in 0.1% aqueous TFA over 13 minutes. Retention times under these conditions for the Abz-LPETGK(Dnp)-CONH2 (SEQ ID NO: 19) substrate, the released GKDnp peptide, and the Abz-LPETGGG-COOH (SEQ ID NO: 20) product were 12.8, 10.4, and 9.1 min, respectively. To calculate the percent conversion, the ratio of the integrated areas of the Abz-LPETGGG-COOH (SEQ ID NO: 20) and Abz-LPETGK(Dnp)-CONH2 (SEQ ID NO: 19) peptide Abs220 peaks was compared to a standard curve generated by mixing the product and starting peptide in known ratios. To determine […] and Km, reaction rates were fit to the Michaelis-Menten equation using OriginPro 7.0 software. All kinetics values reported represent the average of at least three measurements. Percent conversion was also calculated by using the ratio of the integrated areas of the GK(Dnp)-CONH2 and Abz-LPETGK(Dnp)-CONH2 peptide Abs355 peaks were compared directly (Example 5). To determine kcat and Km, LPETG, reaction rates were fit to the Michaelis-Menten equation using Microsoft Excel using the Solver add-in. To determine Km,GGG and KH, reaction rates were fit to the modified Michaelis-Menten, for which KH is as defined when KH<<Km,GGG.
Assays to determine eSrtA, eSrtA(2A-9) and eSrtA(4S-9) specificity were performed by preparing 10 μM stocks of Abz-LXEXGK(Dnp) (SEQ ID NO: 75) peptides in 300 mM Tris pH 7.5, 150 mM NaCl, 5 mM CaCl2, 5% v/v DMSO, and 100 mM Gly-Gly-Gly-COOH (GGG). Reactions were performed by adding eSrtA(2A-9) to a final concentration of 450 nM, eSrtA(4S-9) to a final concentration of 115 nM or eSrtA to a final concentration of 47.5 nM and a final volume of 100 μL, then incubating at 22.5° C. for 15 minutes. Reactions were quenched by the addition of 0.2 volumes of 5 M HCl, then were injected onto an analytical reverse-phase Eclipse XDB-C18 HPLC column (4.6×150 mm, 5 μm, Agilent Technologies) and chromatographed using a gradient of 10 to 65% acetonitrile with 0.1% TFA in 0.1% aqueous TFA over 13 minutes. […]

Data set [1] addresses T2, LPESG (Abz-LPESGK(Dnp)-CONH2) (Staphylococcus aureus, UniProt Q2FV99, D160N/D165A/K190E/K196T/P94R).
T2 construct: All expressed sortases lack the N-terminal 59 amino acids; inferred from Ni-NTA purification; made in house; host or cells: E. coli BL21 (DE3), pET29
T2 sequence (Q2FV99 60-206 P94R/D160N/D165A/G167E/K190E/K196T): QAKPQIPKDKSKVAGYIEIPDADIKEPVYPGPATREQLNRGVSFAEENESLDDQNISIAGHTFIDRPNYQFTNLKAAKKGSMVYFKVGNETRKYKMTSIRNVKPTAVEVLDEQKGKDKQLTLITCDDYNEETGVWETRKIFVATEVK
The experiment in a line: In vitro sortase kinetics HPLC assay, LPESG substrate. Particulars: ratio of kcat/KM. The format is biochemical. The method, boiled down: (§1)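 Abz-LXEXGK(Dnp) peptides in 300 mM Tris pH 7.5, 150 mM NaCl, 5 mM CaCl2, 5% DMSO, GGG; 22.5° C., acid-quenched, converted fraction by reverse-phase HPLC peak areas. kcat and Km from eight substrate concentrations fit to Michaelis-Menten; KH at 1 mM substrate over eight GGG levels.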

For data set [2], the system named is LPETG (Abz-LPETGK(Dnp)-CONH2). Particulars: cited from earlier work.
Data set [3] deals with T3, LPETG (Abz-LPETGK(Dnp)-CONH2) (Staphylococcus aureus, UniProt Q2FV99, D160N/D165A/K190E/K196T/P94R).
T3 construct: All expressed sortases lack the N-terminal 59 amino acids; inferred from Ni-NTA purification; made in house; host or cells: E. coli BL21 (DE3), pET29
T3 sequence (Q2FV99 60-206 P94R/D160N/D165A/G167E/K190E/K196T): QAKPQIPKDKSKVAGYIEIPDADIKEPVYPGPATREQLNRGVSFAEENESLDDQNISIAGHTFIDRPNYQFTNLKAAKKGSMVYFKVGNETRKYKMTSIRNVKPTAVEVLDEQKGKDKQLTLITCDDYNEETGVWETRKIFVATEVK
In words: In vitro sortase kinetics HPLC assay, LPETG substrate. Particulars: cognate LPETG substrate. Type of data set: biochemical. The method in brief:
as §1

Data set [4] concerns the target T4, LAETG (Abz-LAETGK(Dnp)-CONH2) (Staphylococcus aureus, UniProt Q2FV99, D160N/D165A/K190E/K196T/P94R).
T4 construct: All expressed sortases lack the N-terminal 59 amino acids; inferred from Ni-NTA purification; made in house; host or cells: E. coli BL21 (DE3), pET29
T4 sequence (Q2FV99 60-206 P94R/D160N/D165A/G167E/K190E/K196T): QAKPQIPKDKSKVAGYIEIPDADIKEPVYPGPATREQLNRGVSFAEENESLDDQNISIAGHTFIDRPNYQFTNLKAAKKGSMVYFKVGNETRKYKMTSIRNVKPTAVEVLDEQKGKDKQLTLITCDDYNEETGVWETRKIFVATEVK
The experiment in a line: In vitro sortase kinetics HPLC assay, LAETG substrate. Particulars: candidate LAETG target. Type of data set: biochemical. The method in brief: as §1

Like-named read-outs stand apart in the source and are kept apart here.

B1: eSrtA(2A-9): P94R, S102C, A104H, E105D, K138P, K152I, N160K, K162H, T164N, D165A, K173E, I182V, K190E, T196S (protein)
chain: QAKPQIPKDKSKVAGYIEIPDADIKEPVYPGPATREQLNRGVCFHDENESLDDQNISIAGHTFIDRPNYQFTNLKAAKPGSMVYFKVGNETRIYKMTSIRKVHPNAVEVLDEQEGKDKQLTLVTCDDYNEETGVWESRKIFVATEVK
For the molecule B1, the “KH” value with LRETG (1 mM LRETG) is 47.5 ± 1.3 µM. Besides, the Km (as a rule, the concentration of substrate that gives half-maximal velocity) with LRETG (1 mM LRETG, read-out: Km,GGG) came to 628 ± 11 µM; with LRETG (Sub LRETG, 100 mM GGG, read-out: Km) it was 1070 ± 63 µM. The “Kcat (Hz)” value in the data set with LRETG (Sub LRETG, 100 mM GGG) came to 0.25 ± 0.02 Hz.

B2: eSrtA (protein)
chain: QAKPQIPKDKSKVAGYIEIPDADIKEPVYPGPATREQLNRGVSFAEENESLDDQNISIAGHTFIDRPNYQFTNLKAAKKGSMVYFKVGNETRKYKMTSIRNVKPTAVEVLDEQKGKDKQLTLITCDDYNEETGVWETRKIFVATEVK
As to B2, in data set [1], the “preference for LPETG over LPESG” value was 5 fold. For the same molecule, in data set [2], the “higher catalytic activity relative to wild-type SrtA” value was “approximately 140 fold”. Also, the Km in data set [3] came to 200 µM; in data set [4] it was 6100 µM.
